Measured values from paper PMC6363164 (2019).

Biological target: Rab7-RILP complex (human, UniProt P51149 2-195; Q96NA2 242-320)
Assay: ITC

Sequence of Rab7-RILP complex (P51149 2-195 Q67L, chain 1 of 2): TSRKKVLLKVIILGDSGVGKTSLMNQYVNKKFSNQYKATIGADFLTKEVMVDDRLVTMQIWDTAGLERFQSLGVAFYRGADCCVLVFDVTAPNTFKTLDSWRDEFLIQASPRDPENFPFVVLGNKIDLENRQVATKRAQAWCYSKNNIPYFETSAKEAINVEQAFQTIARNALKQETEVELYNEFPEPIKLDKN
Sequence of Rab7-RILP complex (Q96NA2 242-320, chain 2 of 2): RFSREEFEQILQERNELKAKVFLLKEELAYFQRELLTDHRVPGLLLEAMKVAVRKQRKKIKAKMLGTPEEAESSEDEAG

B1: ORP1 ANK (5-233) (protein)
chain: AEQQLLHHARNGNAEEVRQLLETMARNEVIADINCKGRSKSNLGWTPLHLACYFGHRQVVQDLLKAGAEVNVLNDMGDTPLHRAAFTGRKELVMLLLEYNADTTIVNGSGQTAKEVTHAEEIRSMLEAVERTQQRKLEELLLAAAREGKTTELTALLNRPNPPDVNCSDQLGNTPLHCAAYRAHKQCALKLLRSGADPNLKNKNDQKPLDLAQGAEMKHILVGNKVIYK
With B1 the Kd was 4.13 µM.
